Molecular target: recombinant MHJ_0125 (polyhistidine fusion of the M42 glutamyl aminopeptidase MHJ_0125 of Mycoplasma hyopneumoniae) (Mycoplasma hyopneumoniae (strain J))
Test: SEC; 10 µg purified rMHJ_0125 on Superdex 200 (3.2 x 300 mm), 20 mM Tris-HCl pH 8.0, 50 µl/min; markers blue dextran, apoferritin, myoglobin

## recombinant MHJ_0125 (polyhistidine fusion of the M42 glutamyl aminopeptidase MHJ_0125 of Mycoplasma hyopneumoniae) (enzyme)
  stoichiometry N: 12
